T1: Human LRRC15 Protein, His Tag (Acro Biosystems) (human, UniProt Q8TF66 22-538, limits assumed)
T1 construct: Bought protein with His tag
T1 sequence (looked up): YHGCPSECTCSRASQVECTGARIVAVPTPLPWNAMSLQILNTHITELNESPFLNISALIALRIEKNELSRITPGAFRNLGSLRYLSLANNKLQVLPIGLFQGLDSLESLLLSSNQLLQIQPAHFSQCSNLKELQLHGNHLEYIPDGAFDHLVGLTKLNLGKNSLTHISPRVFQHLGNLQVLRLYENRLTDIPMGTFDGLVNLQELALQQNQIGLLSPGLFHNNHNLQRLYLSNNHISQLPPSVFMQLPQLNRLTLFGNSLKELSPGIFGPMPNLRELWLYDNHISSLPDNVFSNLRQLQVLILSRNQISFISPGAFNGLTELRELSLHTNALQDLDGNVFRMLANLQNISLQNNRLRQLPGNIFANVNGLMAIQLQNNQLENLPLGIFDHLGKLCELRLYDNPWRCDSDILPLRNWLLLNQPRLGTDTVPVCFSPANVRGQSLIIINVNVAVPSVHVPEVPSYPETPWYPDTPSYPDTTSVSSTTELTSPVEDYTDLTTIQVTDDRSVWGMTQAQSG


molecular target: T1, Human LRRC15 Protein, His Tag (Acro …); assay: BLI; dissociation pH 7.4 black, pH 5.4 grey [1/2); D00013 FIG. 2B (1/2]

binding result | Binder
binds | MYT5742 (antibody, V domains shown, Parent of the rabbit 24D9 scan; chimeric, rabbit variable domains with human constant regions; also called 24D9; chimeric 24D9 RabMAb) VH: QQQLVESGGGLVKPGASLTLTCKASGFSFSGSYWICWVRQAPGKGLEWIGCINGGSLDITYYASWAKGRFTISKASSTTVTLQKTSLTAADTATYFCASDTSYTAYGNFYFNLWGPGTLVTVSS VL: AQVLTQTASPVSAAVGGTVTINCQSSQSVLNNNWLAWYQQKPGQPPKLLIYDASSLASGVPSRFKGSGSGTQFTLTISDLESDDAATYYCQGEFSCGSADCNAFGGGTEVVVKG
binds | MYT7885 (antibody, V domains shown, rabbit 24D9 VH S30H; chimeric, human constant regions) VH: QQQLVESGGGLVKPGASLTLTCKASGFSFHGSYWICWVRQAPGKGLEWIGCINGGSLDITYYASWAKGRFTISKASSTTVTLQKTSLTAADTATYFCASDTSYTAYGNFYFNLWGPGTLVTVSS VL: AQVLTQTASPVSAAVGGTVTINCQSSQSVLNNNWLAWYQQKPGQPPKLLIYDASSLASGVPSRFKGSGSGTQFTLTISDLESDDAATYYCQGEFSCGSADCNAFGGGTEVVVKG
binds | MYT7887 (antibody, V domains shown, rabbit 24D9 VH S32H; chimeric, human constant regions) VH: QQQLVESGGGLVKPGASLTLTCKASGFSFSGHYWICWVRQAPGKGLEWIGCINGGSLDITYYASWAKGRFTISKASSTTVTLQKTSLTAADTATYFCASDTSYTAYGNFYFNLWGPGTLVTVSS VL: AQVLTQTASPVSAAVGGTVTINCQSSQSVLNNNWLAWYQQKPGQPPKLLIYDASSLASGVPSRFKGSGSGTQFTLTISDLESDDAATYYCQGEFSCGSADCNAFGGGTEVVVKG
binds | MYT7881 (antibody, V domains shown, rabbit 24D9 VH G26H; chimeric, human constant regions) VH: QQQLVESGGGLVKPGASLTLTCKASHFSFSGSYWICWVRQAPGKGLEWIGCINGGSLDITYYASWAKGRFTISKASSTTVTLQKTSLTAADTATYFCASDTSYTAYGNFYFNLWGPGTLVTVSS VL: AQVLTQTASPVSAAVGGTVTINCQSSQSVLNNNWLAWYQQKPGQPPKLLIYDASSLASGVPSRFKGSGSGTQFTLTISDLESDDAATYYCQGEFSCGSADCNAFGGGTEVVVKG
binds | MYT7886 (antibody, V domains shown, rabbit 24D9 VH G31H; chimeric, human constant regions) VH: QQQLVESGGGLVKPGASLTLTCKASGFSFSHSYWICWVRQAPGKGLEWIGCINGGSLDITYYASWAKGRFTISKASSTTVTLQKTSLTAADTATYFCASDTSYTAYGNFYFNLWGPGTLVTVSS VL: AQVLTQTASPVSAAVGGTVTINCQSSQSVLNNNWLAWYQQKPGQPPKLLIYDASSLASGVPSRFKGSGSGTQFTLTISDLESDDAATYYCQGEFSCGSADCNAFGGGTEVVVKG
no binding (tested: 50 nM LRRC15) | MYT7884 (antibody, V domains shown, rabbit 24D9 VH F29H; chimeric, human constant regions) VH: QQQLVESGGGLVKPGASLTLTCKASGFSHSGSYWICWVRQAPGKGLEWIGCINGGSLDITYYASWAKGRFTISKASSTTVTLQKTSLTAADTATYFCASDTSYTAYGNFYFNLWGPGTLVTVSS VL: AQVLTQTASPVSAAVGGTVTINCQSSQSVLNNNWLAWYQQKPGQPPKLLIYDASSLASGVPSRFKGSGSGTQFTLTISDLESDDAATYYCQGEFSCGSADCNAFGGGTEVVVKG
binds | MYT7882 (antibody, V domains shown, rabbit 24D9 VH F27H; chimeric, human constant regions) VH: QQQLVESGGGLVKPGASLTLTCKASGHSFSGSYWICWVRQAPGKGLEWIGCINGGSLDITYYASWAKGRFTISKASSTTVTLQKTSLTAADTATYFCASDTSYTAYGNFYFNLWGPGTLVTVSS VL: AQVLTQTASPVSAAVGGTVTINCQSSQSVLNNNWLAWYQQKPGQPPKLLIYDASSLASGVPSRFKGSGSGTQFTLTISDLESDDAATYYCQGEFSCGSADCNAFGGGTEVVVKG
binds | MYT7883 (antibody, V domains shown, rabbit 24D9 VH S28H; chimeric, human constant regions) VH: QQQLVESGGGLVKPGASLTLTCKASGFHFSGSYWICWVRQAPGKGLEWIGCINGGSLDITYYASWAKGRFTISKASSTTVTLQKTSLTAADTATYFCASDTSYTAYGNFYFNLWGPGTLVTVSS VL: AQVLTQTASPVSAAVGGTVTINCQSSQSVLNNNWLAWYQQKPGQPPKLLIYDASSLASGVPSRFKGSGSGTQFTLTISDLESDDAATYYCQGEFSCGSADCNAFGGGTEVVVKG

From patent US20250352661A1 (MYTHIC THERAPEUTICS, published 2025)
